Results: the supplement of paper PMC10567573

B1: RAB40A (parent)
chain: NWLGRPSKVLSLQDLCCRTIVSCT
B2: CLCN6 (parent)
chain: MAGCRGSLCCCCRWCCCCGERETR

Variants of: B1
Assay: protein stability index of a GFP-peptide fusion (GPS, HEK-293T) (PSI 1-6); higher = more stable
Details: c terminus: a fixed tail appended
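Also: lentivirally expressed fusions sorted by FACS into six bins by GFP to DsRed ratio, PSI derived from sequencing read proportions per bin multiplied by bin number.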

Protein stability index, by site and new letter:
G4: T 2.07, R 2.42, C 1.5, E 2.77, N 2.27, I 2.13, M 2.34, P 2.42, A 2.73, Y 2.35, H 2.33, K 2.48, Q 2.34, D 2.57, L 2.29, W 2.09, S 2.21, V 2.56, F 2.23
L3: N 2.46, Y 2.51, F 2.28, V 2.26, C 2.39, S 2.64, Q 2.85, H 2.3, K 3.05, R 2.56, G 2.69, W 2.11, D 2.62, M 2.2, P 2.58, A 2.53, T 2.95, I 2.36, E 2.75
W2: Y 2.68, V 2.71, D 3.7, R 3, P 2.81, E 3.18, H 3.05, M 2.62, Q 3.14, G 3.23, A 3.05, F 2.64, S 2.96, N 3.23, T 3.08, C 2.71, K 3.11, I 3.01, L 2.68
R5: P 3.14, S 2.69, I 2.2, Q 2.55, L 2.06, M 2.85, D 2.51, K 2.42, A 2.46, E 2.7, V 2.52, C 2.76, Y 2.06, W 3.09, G 2.35, T 2.42, H 2.25, N 2.56, F 2.27
N1: Q 2.29, V 2.15, M 1.75, D 2.12, A 2.04, H 2.2, G 3.03, P 2.35, K 1.97, S 2.36, L 1.62, Y 1.83, I 1.84, W 2.22, R 2.21, F 2.16, T 2.16, C 2.02, E 2.6
P6: A 1.79, C 2.13

Variants of: B2
Assay: as above
Details: c terminus: a fixed tail appended

Protein stability index: each site, then its substitutions
C17: D 1.96, L 2.55, T 1.27, I 1.62, E 1.8, Q 1.09, N 1.52, V 1.41, P 1.8, R 2.67, F 2.29, W 2.41, S 1.45, K 1.89, A 2.48, Y 1.97
T23: C 2.73, G 1.78, S 2.36, R 1.77, M 1.87, P 1.83, W 2.78, Q 1.8, Y 1.79, D 2.15, N 2.15
E20: S 2.25, L 2.06, D 2.27, Q 1.55, A 1.96, T 1.01, Y 1.89, F 1.55, R 2.33, G 2.24, W 1.11, I 1.55, C 2.16, V 1.93, H 1.56, K 2.22, N 2.36
R13: N 2.4, Y 2.57, M 2.13, L 2.4, H 2.06, W 3.64, Q 1.79, I 1.3, A 2.01, T 1.95, E 2.4, S 1.94, G 2.27, K 1.1, C 2.02, V 1.78, P 1.76, F 2.78
C12: I 2.88, M 2.19, G 3.2, P 1.66, V 1.94, N 2.9, T 2.59, F 3.72, L 2.86, D 2.35, S 1.96, H 1.52, R 1.95, K 1.89, Y 2.23
C15: H 2.6, D 1.71, L 2.74, Q 2.39, S 2, G 2.04, Y 1.36, I 1.87, M 1.65, F 2.99, P 1.5, N 1.76, V 2.08, A 1.97, K 1.82
E22: C 1.89, T 2.09, H 1.73, R 1.69, M 1.65, Q 1.83, I 2.15, S 1.65, L 2.3, F 2.16, D 1.92, N 1.48, K 1.49, P 2.12
W14: K 2.32, R 2.22, N 2.06, E 2.08, L 3.15, F 1.95, C 1.53, M 1.14, A 1.89, G 2.23, T 3.2, P 2.33, Q 2.47, H 2.06, Y 1.55
G19: Y 2.41, E 1.86, M 2.34, N 1.44, A 1.49, I 1.45, F 2.53, K 1.8, C 1.83, D 2.22, Q 1.29, W 1.66, T 2.02, H 1.15, P 2.17
C18: K 1.85, G 1.79, L 2.49, Q 2.58, P 1.8, A 1.26, S 2.47, Y 1.84, W 3.21, T 1.86, M 1.42, H 2.06, N 1.49, V 1.3, D 2.77
R21: A 2.37, V 1.66, M 1.08, L 1.76, E 2.27, T 2.77, I 1.5, W 1.52, Y 2.8, C 2.56, D 2.82, Q 1.39, K 1.79, N 1.87, F 1.06, S 2.18
C9: N 1.67, R 1.28, Y 1.69, K 1.77, W 2.65, T 2.16, Q 2.64, L 1.64, P 1.69, M 2.65
C16: R 1.28, W 2.86, E 2.22, H 1.47, K 1.65, L 1.55, D 2.66, P 1.33, V 2.02, T 1.86, A 2.12, I 2.23, S 1
C10: P 1.45, M 1.28, Y 1.88, Q 1.54, T 3.66, N 1.7, D 1.24, K 2.07, A 1.42, I 1.79, H 1.69, W 1.69, F 1.36
R24: S 2.57, I 1.87, E 2.95, M 1.91, H 2.55, T 2.71, N 2.74, C 3.05, F 1.79, Y 2.44, P 2.38, G 2.44, L 2.73, K 2.78, D 2.79, Q 2.54
C11: S 1.77, Q 1.9, G 3.4, H 1.3, D 2.23, K 1.17, N 2.15, F 2.72, T 2.24, V 1.41, A 2.42, L 3.23, W 2.26, R 1.97, E 2.27, M 1.84, I 1.68, Y 2
